Measurements taken from US11510990B2, “Conjugates of fusion proteins of GLP-1 and FGF21” (BEIJING QL BIOPHARMACEUTICAL CO., LTD., priority 2020, dated 2022).

Experiments:
[1] = Body weight reduction in C57BL/6 mice, daily subcutaneous dosing; type: in vivo; settings: male C57BL/6 mice, 30 nmol/kg subcutaneously everyday, Day 11
Method: FIGS. 1A-1F show in vivo activities of fusion protein conjugates. […] Body weight was measured daily. […] Compared to Vehicle control: ***, p<0.001. All data are expressed as mean values and standard error (SEM).
10 week old male C57BL/6 mice were injected everyday subcutaneously with 30 nmol/kg exemplary fusion protein conjugates for 10 or 14 days (n=5). Body weight was daily monitored for each individual animal. Day 1 and Day 10 (or Day 14) are first day and last day of molecule dosage. % BW loss=100*(BW on Day n-BW on Day 1)/(BW on Day 1). Data are indicated as mean values and standard error (SEM) or pooled values. Statistical analysis was performed by One-way ANOVA. Body weight reduction on Day 11 in Table 5 is calculated by −1*(% BW loss−% BW loss of vehicle group).

[2] = Pharmacokinetic measurement in C57BL/6 mice, single subcutaneous dose, plasma ELISA; type: in vivo
Method: Each fusion protein conjugate was injected subcutaneously into C57BL/6 mice (n=3/group) once and plasma samples were collected at designed timepoints and analyzed by ELISA method. Plasma concentrations are indicated as mean values and standard error (SEM).
6-8 week old male C57BL/6 mice were administrated in a single subcutaneous dose of 30 nmol/kg of the exemplary fusion protein conjugates (Compounds 4, 9, 10, 19, 63) or the non-acylated fusion protein (i.e., Compound 3, which has the amino acid sequence identical to Compound 2 but without any conjugation) (n=3/group). Plasma samples were collected pre-dose (−5 min), 0.5 hr, 1 hr, 2 hr, 4 hr, 6 hr, 8 hr, 12 hr and 24 hr hours after the injection. For Compound 3, plasma collection timepoints were −5 min, 0.25 h, 0.5 h, 1 h, 2 h, 4 h and 6 h. The concentrations of the fusion protein conjugates or the non-acylated fusion protein in the plasma were measured by an ELISA assay which has immunoreactivities towards both C-terminal FGF21 and intact N-terminal of GLP-1. Based on the graph showing plasma concentration of each protein versus time after subcutaneous injection, the pharmacokinetic parameters were calculated by WinNonlin.
Pharmacokinetic data were analyzed by WinNonlin software. Tmax, Cmax, T1/2, AUC and MRT were calculated for each molecule.

[3] = Body weight in DIO mice: fusion protein conjugate against GLP1 alone and FGF21 alone; type: in vivo, DIO male C57BL/6 mice; settings: both 10 nmol/kg and 30 nmol/kg, subcutaneously everyday for 21 days
Method: (§1) FIGS. 3A-3B show in vivo efficacy in DIO mice. To evaluate the body weight effect of the fusion proteins, 17 week old DIO mice (C57BL/6 mice on high fat diet for 13 weeks) were dosed everyday subcutaneously with different concentrations of compounds for 21 days. […] Data are expressed as mean values and standard error (SEM). n=5 for each treatment group.
17 week old DIO male C57BL/6 mice (˜45 g) were injected everyday subcutaneously with designated proteins (i.e., Compounds 63, 69 and 70) for 21 days. Body weight was measured daily and five animals were used for each treatment group. Day 1 and Day 21 are first day and last day of molecule dosage. % BW loss=100*(BW on Day n-BW on Day 1)/(BW on Day 1). Data are indicated as mean values and standard error (SEM).

[4] = Efficacy study in DIO mice: body weight, fasting glucose, insulin, triglycerides; type: in vivo, DIO male C57BL/6 mice
Method: as §1, with “4A-4F” for “3A-3B”, “evaluate effects of the compounds on” for “evaluate”, “weight, blood glucose, plasma insulin and plasma triglyceride in vivo, 17-week” for “weight effect of the fusion proteins, 17 week”
17 week old DIO male C57BL/6 mice (˜45 g) were injected everyday subcutaneously with designated proteins (i.e., Compound 63) for 21 days. Body weight was measured daily and five animals were used for each treatment group. Fasting glucose was also monitored on designated days. Body weight and glucose were monitored for each individual animal. Day 1 and Day 21 are first day and last day of molecule dosage. % BW loss=100*(BW on Day n-BW on Day 1)/(BW on Day 1). Terminal blood was collected and EDTA-2k plasma was prepared and frozen in −80° C. for biomarker measurement. Livers were also collected and frozen in liquid nitrogen and stored in −80° C.
Data are indicated as mean values and standard error (SEM). Statistical analysis was performed by One-way ANOVA.

[5] = single subcutaneous dose 30 nmol/kg, plasma

B1: Compound 63: GLP-1/FGF21 fusion polypeptide SEQ ID NO: 160 conjugated with Moiety B at 51C and 222C (conjugate)
chain: HGEGTFTSDVSSYLEEQAAKEFIAWLVKGGGGGGGSGGGGSGGGGSGGGGCHPIPDSSPLLQFGGQVRQRYLYTDDAQQTEAHLEIREDGTVGGAADQSPESLLQLKALKPGVIQILGVKTSRFLCQRPDGALYGSLHFDPEACSFRELLLEDGYNVYQSEAHGLPLHLPGQKSPHRDPAPRGPARFLPLPGLPPALPEPPGILAPQPPDVGSSDPLSLVGCSQGRSPSYES
modifications: Moiety B conjugated at C51 and C222
[1]
  Body weight reduction at 30 nmol/kg (% reduction compared to vehicle)(Day11): 24.5%
[2]; 30 nmol/kg subcutaneous
  AUC compared to non-acylated fusion protein (Compound 3): larger AUC
[2]; [5]
  AUClast: 1.2948 µM·h
  Cmax: 88.8 nM
  Terminal t1/2: 16.7 h
  Tmax: 6.7 h
[3]
  Body weight control compared to GLP1 alone (Compound 70) and FGF21 alone (Compound 69): better body weight control
[4]; 30 nmol/kg subcutaneously everyday for 21 days
  Body weight, glycemic control and lipid profile compared to 30 nmol/kg Semaglutide: better body weight and glycemic control and lipid profile
[4]; comparing 10 nmol/kg and 30 nmol/kg
  Dose dependence of efficacy: Dose dependent efficacy
